Measured values reported in patent publication US20210070855A1 (NANJING LEGEND BIOTECH, published 2021).
Read-outs that look alike come from different tables or passages of the source.

Columns and labels:
[1] = molecular target: T1, cynomolgus monkey CD47 on CHO-K1 cells (cynomolgus monkey, UniProt A0A5F8AK49 19-323 (rhesus entry)); assay: flow cytometry on CHO-K1/cyno CD47 cells; unit taken from the axis
T1 construct: whole, on cells; also called CHO-K1/cyno CD47; CHO-K1/cynoCD47
Description: (§1) Briefly, binding to cell-expressed cyno CD47 was evaluated on cynomolgus monkey CD47 over-expressing CHO cells. Anti-CD47 antibody dilution series was prepared in FACS buffer. CHO-K1/cynomolgus monkey CD47 cell were transferred to a 96-well U-bottom plate and add CD47 antibody dilution. After 30 minutes incubation at 4° C., cells were washed twice with FACS buffer. […] The cells were washed twice with wash buffer, and then analyzed for binding by using FACSCalibur (BD Bioscience, San Jose, Calif.) and Flowjo software.

human CD47 on cells [2] = molecular target: T2, human CD47 on cells (human, UniProt Q08722 19-323); assay: flow cytometry, blocking of human SIRPα binding to CHO-K1/huCD47 cells
T2 construct: also called CHO-K1/huCD47; human CD47 over-expressed in CHO-K1 cells
Description: (§2) After 30 minutes incubation at 4° C., cells were washed twice with FACS buffer.

human CD47 on cells [3] = molecular target: T2, human CD47 on cells; assay: flow cytometry on CHO-K1/huCD47 cells; x axis Log(nM), unit taken from the axis
Description: (§3) Binding to cell-expressed human CD47 was evaluated on human CD47 over-expressing CHO cells (GenScript, Cat #M00581). Anti-CD47 antibody dilution series was prepared in FACS buffer. CHO-K1/human CD47 cells were transferred to a 96-well U-bottom plate and anti-CD47 antibody dilution was added. […] The cells were then washed twice with wash buffer. Cells were analyzed for binding by FACSCalibur (BD Bioscience, San Jose, Calif.) and Flowjo software.

CD47 protein [4] = molecular target: T3, CD47 protein; assay: ELISA on CD47 protein; x axis is log10 of mAb (ng/ml), unit taken from the axis
T3 construct: also called CD47 (ELISA antigen); not shown: The carrier of the coated recombinant protein (an Fc tag as in CD47-Fc, or a His tag as in CD47-His)

CD47 protein [5] = molecular target: T3, CD47 protein; assay: ELISA on CD47 protein; x axis is log10 of mAb (ng/ml)
human CD47 on cells [6] = molecular target: T2, human CD47 on cells; assay: flow cytometry, blocking of human SIRPα binding to CHO-K1/huCD47 cells; the box on the sheet is labelled EC50; unit taken from the axis
Description: as §2

[7] = molecular target: T1, cynomolgus monkey CD47 on CHO-K1 cells; assay: flow cytometry on CHO-K1/cyno CD47 cells
Description: as §1

human CD47 on cells [8] = molecular target: T2, human CD47 on cells; assay: flow cytometry on CHO-K1/huCD47 cells; x axis Log(nM)
Description: as §3

[9] = molecular target: T1, cynomolgus monkey CD47 on CHO-K1 cells; assay: flow cytometry on CHO-K1/cyno CD47 cells; unit taken from the axis; remark: listed apart in the source
Description: as §1

[10] = molecular target: T1, cynomolgus monkey CD47 on CHO-K1 cells; assay: as above; remark: listed apart in the source
Description: as §1

Binder | EC50 [1] | IC50 (read off the curve) (human CD47 on cells [2]) | EC50 (human CD47 on cells [3]) | EC50 (CD47 protein [4]) | IC50 (human CD47 on cells [6]) | other results
55F2C4 (antibody, V domains shown, also called 01-55F2C4) VH: QVQLQQSGPQLVRPGASVKISCKASGYSFTNYWMHWMKQRPGQGLEWIGMIDPSDSETRLNQQFKDKATLAVDKSSSTAYMQLSSPTSEDSAVYYCARLGRYYFDYWGQGTTLTVSS VL: NIVMTQSPKSMYVSVGERVTLICRASEIVGTYVSWYQQKPEQSPKLLIYGASNRYTGVPDRFTGSRSATDFSLTISNVQAEDLADYLCGQSYDSPYTFGGGTKLEIK | 5.75 nM | ~5 nM | 52.5 nM | 1.39 ng/mL | – | –
98E2E7 (antibody, V domains shown, purified murine anti-CD47 hybridoma antibody; same VH and VL as 98E2E12; also called 03-98E2E7) VH: QVQLQQSGPQLVRPGASVKISCKASGYSFTNHWMHWMKQRPGQGLEWIGMIDPSDSETRLNQQFKDKATLTVDKSSSTAYMQLSSPTSEDSAVFYCARLGRYYFDYWGQGTTLTVSS VL: NIVMTQSPKSMSVSVGERVTLSCRASDIVGTYVSWYQQKPEQSPKLLIYGASNRYTGVPDRFTGSRSATDFSLTISNVQAEDLADYLCGQSYDSPYTFGGGTKLEIK | – | – | – | 3.78 ng/mL | – | EC50 (read off the curve) [7]: ~3 nM; EC50 (read off the curve) (human CD47 on cells [8]): ~7 nM
107F11C4 (antibody, V domains shown, purified murine anti-CD47 hybridoma antibody; same VH and VL as 107F11B11 and 107F11F10) VH: EVQLQQSGAEFVKPGASVKLSCTASGFNIEDTYMHWVKQRPEQGLEWIGMIDPANGKTKYGPRFQDKATVTADTSSNTANLQLSSLTSEDTAVYYCADGIGYYVGAMDYWGQGTSVTVSS VL: DIQMNQSPSSLSASLGDTITITCHASQNINVWLSWYQQKPGNIPKLLIYKASNLHTGVPSRFSGSGSGTGFTLTISSLQPEDIATYYCQQGHSYPYTFGGGTKLEIK | – | – | – | – | 1.07 nM | EC50 [9]: 1.13 nM; EC50 [10]: 1.13 nM
107F11B11 (antibody, V domains shown, purified murine anti-CD47 hybridoma antibody; same VH and VL as 107F11C4 and 107F11F10; also called 07-107F11B11) VH: EVQLQQSGAEFVKPGASVKLSCTASGFNIEDTYMHWVKQRPEQGLEWIGMIDPANGKTKYGPRFQDKATVTADTSSNTANLQLSSLTSEDTAVYYCADGIGYYVGAMDYWGQGTSVTVSS VL: DIQMNQSPSSLSASLGDTITITCHASQNINVWLSWYQQKPGNIPKLLIYKASNLHTGVPSRFSGSGSGTGFTLTISSLQPEDIATYYCQQGHSYPYTFGGGTKLEIK | – | ~2 nM | – | – | – | EC50 (read off the curve) [7]: ~1 nM; EC50 (read off the curve) (CD47 protein [5]): ~5 ng/mL

Continued, in another order:

EC50 [1] | IC50 (read off the curve) (human CD47 on cells [2]) | EC50 (human CD47 on cells [3]) | EC50 (CD47 protein [4]) | IC50 (human CD47 on cells [6]) | Binder | other results
1.81 nM | – | 3.15 nM | – | 2.98 nM | 112E5F2 (antibody, V domains shown, purified murine anti-CD47 hybridoma antibody; same VH and VL as 112E5D9 and 112E5H7; also called 11-112E5F2) VH: QVQLQQSGPQLVRPGASVKISCKASGYSFTNNWMHWMKQRPGQGLEWIGMIDPSDSETRLNQQFRDKATLTVDKTSSTAYMQLSSPTSEDSAVYYCARLGRYYFDYWGLGTTLTVSS VL: NIVMTQSPKSMSVSVGERVTMNCRASEIVGTYVSWYQQKPEQSPKLLIYGAFNRYTGVPDRFTGSRSGTDFSLNISNVQAEDLADYLCGQSYDSPYTFGGGTKLEIK | EC50 (read off the curve) (CD47 protein [5]): ~2 ng/mL
1.45 nM | ~4 nM | 3.47 nM | 4.77 ng/mL | – | 112E5D9 (antibody, V domains shown, purified murine anti-CD47 hybridoma antibody; same VH and VL as 112E5F2 and 112E5H7; also called 10-112E5D9) VH: QVQLQQSGPQLVRPGASVKISCKASGYSFTNNWMHWMKQRPGQGLEWIGMIDPSDSETRLNQQFRDKATLTVDKTSSTAYMQLSSPTSEDSAVYYCARLGRYYFDYWGLGTTLTVSS VL: NIVMTQSPKSMSVSVGERVTMNCRASEIVGTYVSWYQQKPEQSPKLLIYGAFNRYTGVPDRFTGSRSGTDFSLNISNVQAEDLADYLCGQSYDSPYTFGGGTKLEIK | –
1.53 nM | – | – | 9.81 ng/mL | 3.4 nM | 112E5H7 (antibody, V domains shown, purified murine anti-CD47 hybridoma antibody; same VH and VL as 112E5D9 and 112E5F2; also called 12-112E5H7) VH: QVQLQQSGPQLVRPGASVKISCKASGYSFTNNWMHWMKQRPGQGLEWIGMIDPSDSETRLNQQFRDKATLTVDKTSSTAYMQLSSPTSEDSAVYYCARLGRYYFDYWGLGTTLTVSS VL: NIVMTQSPKSMSVSVGERVTMNCRASEIVGTYVSWYQQKPEQSPKLLIYGAFNRYTGVPDRFTGSRSGTDFSLNISNVQAEDLADYLCGQSYDSPYTFGGGTKLEIK | –
